Laboratory results from PMC2872917.

How the values were obtained:
[1] = target: Dam1 complex (S. cerevisiae) (UniProt P53267); test: velocity sedimentation
microtubules = microtubules (UniProt Q6B856); test: bead-microtubule-binding assay

Substance	stoichiometry N [1]	density of microtubule-attached beads (beads × mm^−2) (microtubules)
Dam1 complex (from UniProt P53267 1-343; Q12248 1-94)	2	
Ndc80 complex (from UniProt P40460 1-691; P33895 1-451)		7800
